biological target: B-cell maturation antigen (BCMA) expressed on cells (human), Q02223; test: cell-based or functional assay
Sequence (Q02223 whole entry): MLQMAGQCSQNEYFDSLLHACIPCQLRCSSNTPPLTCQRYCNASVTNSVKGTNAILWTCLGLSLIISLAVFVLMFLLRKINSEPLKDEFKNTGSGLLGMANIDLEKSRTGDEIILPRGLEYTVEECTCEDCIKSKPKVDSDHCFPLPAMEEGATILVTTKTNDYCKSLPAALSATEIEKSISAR

| Binder | JNL binding assay, ratio to K562; K562-BCMA | JNL binding assay, ratio to K562; NCI-H929 | JNL binding assay, ratio to K562; RPMI 8226 | Proliferation, CD3 ratio to no target; K562-BCMA | Proliferation, CD3 ratio to no target; KMS11-luc | Proliferation, CD3 ratio to no target; NCI-H929 | Proliferation, CD3 ratio to no target; RPMI 8226 | Proliferation, CD4 ratio to no target; K562-BCMA | Proliferation, CD4 ratio to no target; KMS11-luc | Cell killing EC50; KMS11-luc |
| --- | --- | --- | --- | --- | --- | --- | --- | --- | --- | --- |
| BCMA-9 CAR (139108) (protein) QVQLVESGGGLVKPGGSLRLSCAASGFTFSDYYMSWIRQAPGKGLEWVSYISSSGSTIYYADSVKGRFTISRDNAKNSLYLQMNSLRAEDTAVYYCARESGDGMDVWGQGTTVTVSSASGGGGSGGRASGGGGSDIQMTQSPSSLSASVGDRVTITCRASQSISSYLNWYQQKPGKAPKLLIYAASSLQSGVPSRFSGSGSGTDFTLTISSLQPEDFATYYCQQSYTLAFGQGTKVDIKTTTPAPRPPTPAPTIASQPLSLRPEACRPAAGGAVHTRGLDFACDIYIWAPLAGTCGVLLLSLVITLYCKRGRKKLLYIFKQPFMRPVQTTQEEDGCSCRFPEEEEGGCELRVKFSRSADAPAYKQGQNQLYNELNLGRREEYDVLDKRRGRDPEMGGKPRRKNPQEGLYNELQKDKMAEAYSEIGMKGERRRGKGHDGLYQGLSTATKDTYDALHMQALPPR | 1.59 | 1.99 | 1.54 | 1.51 | 1.66 | 4.63 | 2.5 | 1.59 | 1.49 | 0.68 not printed |
| BCMA-8 CAR (139107) (protein) EVQLVETGGGVVQPGGSLRLSCAVSGFALSNHGMSWVRRAPGKGLEWVSGIVYSGSTYYAASVKGRFTISRDNSRNTLYLQMNSLRPEDTAIYYCSAHGGESDVWGQGTTVTVSSASGGGGSGGRASGGGGSEIVLTQSPGTLSLSPGERATLSCRASQSVGSTNLAWYQQKPGQAPRLLIYDASNRATGIPDRFSGGGSGTDFTLTISRLEPEDFAVYYCQQYGSSPPWTFGQGTKVEIKTTTPAPRPPTPAPTIASQPLSLRPEACRPAAGGAVHTRGLDFACDIYIWAPLAGTCGVLLLSLVITLYCKRGRKKLLYIFKQPFMRPVQTTQEEDGCSCRFPEEEEGGCELRVKFSRSADAPAYKQGQNQLYNELNLGRREEYDVLDKRRGRDPEMGGKPRRKNPQEGLYNELQKDKMAEAYSEIGMKGERRRGKGHDGLYQGLSTATKDTYDALHMQALPPR | 3.17 | 2.67 | 3.87 | 2.55 | 2.46 | 2.17 | 2.56 | 3.59 | 3.11 | 0.14 not printed |

Second part, led by results:

| JNL binding assay, ratio to K562; K562-BCMA | JNL binding assay, ratio to K562; NCI-H929 | JNL binding assay, ratio to K562; RPMI 8226 | Proliferation, CD3 ratio to no target; K562-BCMA | Proliferation, CD3 ratio to no target; KMS11-luc | Proliferation, CD3 ratio to no target; NCI-H929 | Proliferation, CD3 ratio to no target; RPMI 8226 | Proliferation, CD4 ratio to no target; K562-BCMA | Proliferation, CD4 ratio to no target; KMS11-luc | Binder | Cell killing EC50; KMS11-luc |
| --- | --- | --- | --- | --- | --- | --- | --- | --- | --- | --- |
| 2.91 | 2.79 | 3.49 | 3.94 | 3.51 | 4.08 | 3.73 | 4.87 | 3.82 | BCMA-15 CAR (139114) (protein) EVQLVESGGGLVQPGGSLRLSCAVSGFALSNHGMSWVRRAPGKGLEWVSGIVYSGSTYYAASVKGRFTISRDNSRNTLYLQMNSLRPEDTAIYYCSAHGGESDVWGQGTTVTVSSASGGGGSGGRASGGGGSEIVLTQSPGTLSLSPGERATLSCRASQSIGSSSLAWYQQKPGQAPRLLMYGASSRASGIPDRFSGSGSGTDFTLTISRLEPEDFAVYYCQQYAGSPPFTFGQGTKVEIKTTTPAPRPPTPAPTIASQPLSLRPEACRPAAGGAVHTRGLDFACDIYIWAPLAGTCGVLLLSLVITLYCKRGRKKLLYIFKQPFMRPVQTTQEEDGCSCRFPEEEEGGCELRVKFSRSADAPAYKQGQNQLYNELNLGRREEYDVLDKRRGRDPEMGGKPRRKNPQEGLYNELQKDKMAEAYSEIGMKGERRRGKGHDGLYQGLSTATKDTYDALHMQALPPR | 0.11 not printed |
| 3.74 | 2.68 | 3.66 | 3.47 | 3.2 | 3.46 | 3.48 | 5.4 | 3.84 | BCMA-13 CAR (139112) (protein) QVQLVESGGGLVQPGGSLRLSCAVSGFALSNHGMSWVRRAPGKGLEWVSGIVYSGSTYYAASVKGRFTISRDNSRNTLYLQMNSLRPEDTAIYYCSAHGGESDVWGQGTTVTVSSASGGGGSGGRASGGGGSDIRLTQSPSPLSASVGDRVTITCQASEDINKFLNWYHQTPGKAPKLLIYDASTLQTGVPSRFSGSGSGTDFTLTINSLQPEDIGTYYCQQYESLPLTFGGGTKVEIKTTTPAPRPPTPAPTIASQPLSLRPEACRPAAGGAVHTRGLDFACDIYIWAPLAGTCGVLLLSLVITLYCKRGRKKLLYIFKQPFMRPVQTTQEEDGCSCRFPEEEEGGCELRVKFSRSADAPAYKQGQNQLYNELNLGRREEYDVLDKRRGRDPEMGGKPRRKNPQEGLYNELQKDKMAEAYSEIGMKGERRRGKGHDGLYQGLSTATKDTYDALHMQALPPR | 0.11 not printed |

same assay, conditions: not given

| Binder | Proliferation, CD4 ratio to no target; NCI-H929 | Proliferation, CD4 ratio to no target; RPMI 8226 | Proliferation, CD8 ratio to no target; K562-BCMA | Proliferation, CD8 ratio to no target; KMS11-luc | Proliferation, CD8 ratio to no target; NCI-H929 | Proliferation, CD8 ratio to no target; RPMI 8226 |
| --- | --- | --- | --- | --- | --- | --- |
| BCMA-9 CAR (139108) (protein) QVQLVESGGGLVKPGGSLRLSCAASGFTFSDYYMSWIRQAPGKGLEWVSYISSSGSTIYYADSVKGRFTISRDNAKNSLYLQMNSLRAEDTAVYYCARESGDGMDVWGQGTTVTVSSASGGGGSGGRASGGGGSDIQMTQSPSSLSASVGDRVTITCRASQSISSYLNWYQQKPGKAPKLLIYAASSLQSGVPSRFSGSGSGTDFTLTISSLQPEDFATYYCQQSYTLAFGQGTKVDIKTTTPAPRPPTPAPTIASQPLSLRPEACRPAAGGAVHTRGLDFACDIYIWAPLAGTCGVLLLSLVITLYCKRGRKKLLYIFKQPFMRPVQTTQEEDGCSCRFPEEEEGGCELRVKFSRSADAPAYKQGQNQLYNELNLGRREEYDVLDKRRGRDPEMGGKPRRKNPQEGLYNELQKDKMAEAYSEIGMKGERRRGKGHDGLYQGLSTATKDTYDALHMQALPPR | 4.45 | 2.24 | 1.43 | 1.83 | 4.79 | 2.76 |
| BCMA-8 CAR (139107) (protein) EVQLVETGGGVVQPGGSLRLSCAVSGFALSNHGMSWVRRAPGKGLEWVSGIVYSGSTYYAASVKGRFTISRDNSRNTLYLQMNSLRPEDTAIYYCSAHGGESDVWGQGTTVTVSSASGGGGSGGRASGGGGSEIVLTQSPGTLSLSPGERATLSCRASQSVGSTNLAWYQQKPGQAPRLLIYDASNRATGIPDRFSGGGSGTDFTLTISRLEPEDFAVYYCQQYGSSPPWTFGQGTKVEIKTTTPAPRPPTPAPTIASQPLSLRPEACRPAAGGAVHTRGLDFACDIYIWAPLAGTCGVLLLSLVITLYCKRGRKKLLYIFKQPFMRPVQTTQEEDGCSCRFPEEEEGGCELRVKFSRSADAPAYKQGQNQLYNELNLGRREEYDVLDKRRGRDPEMGGKPRRKNPQEGLYNELQKDKMAEAYSEIGMKGERRRGKGHDGLYQGLSTATKDTYDALHMQALPPR | 2.98 | 3.33 | 1.59 | 1.83 | 1.41 | 1.81 |

Continued, values first:

| Proliferation, CD4 ratio to no target; NCI-H929 | Proliferation, CD4 ratio to no target; RPMI 8226 | Proliferation, CD8 ratio to no target; K562-BCMA | Proliferation, CD8 ratio to no target; KMS11-luc | Proliferation, CD8 ratio to no target; NCI-H929 | Proliferation, CD8 ratio to no target; RPMI 8226 | Binder |
| --- | --- | --- | --- | --- | --- | --- |
| 4.82 | 4.24 | 1.89 | 2.73 | 2.42 | 2.51 | BCMA-15 CAR (139114) (protein) EVQLVESGGGLVQPGGSLRLSCAVSGFALSNHGMSWVRRAPGKGLEWVSGIVYSGSTYYAASVKGRFTISRDNSRNTLYLQMNSLRPEDTAIYYCSAHGGESDVWGQGTTVTVSSASGGGGSGGRASGGGGSEIVLTQSPGTLSLSPGERATLSCRASQSIGSSSLAWYQQKPGQAPRLLMYGASSRASGIPDRFSGSGSGTDFTLTISRLEPEDFAVYYCQQYAGSPPFTFGQGTKVEIKTTTPAPRPPTPAPTIASQPLSLRPEACRPAAGGAVHTRGLDFACDIYIWAPLAGTCGVLLLSLVITLYCKRGRKKLLYIFKQPFMRPVQTTQEEDGCSCRFPEEEEGGCELRVKFSRSADAPAYKQGQNQLYNELNLGRREEYDVLDKRRGRDPEMGGKPRRKNPQEGLYNELQKDKMAEAYSEIGMKGERRRGKGHDGLYQGLSTATKDTYDALHMQALPPR |
| 5.05 | 4.44 | 2.34 | 2.79 | 2.53 | 2.86 | BCMA-13 CAR (139112) (protein) QVQLVESGGGLVQPGGSLRLSCAVSGFALSNHGMSWVRRAPGKGLEWVSGIVYSGSTYYAASVKGRFTISRDNSRNTLYLQMNSLRPEDTAIYYCSAHGGESDVWGQGTTVTVSSASGGGGSGGRASGGGGSDIRLTQSPSPLSASVGDRVTITCQASEDINKFLNWYHQTPGKAPKLLIYDASTLQTGVPSRFSGSGSGTDFTLTINSLQPEDIGTYYCQQYESLPLTFGGGTKVEIKTTTPAPRPPTPAPTIASQPLSLRPEACRPAAGGAVHTRGLDFACDIYIWAPLAGTCGVLLLSLVITLYCKRGRKKLLYIFKQPFMRPVQTTQEEDGCSCRFPEEEEGGCELRVKFSRSADAPAYKQGQNQLYNELNLGRREEYDVLDKRRGRDPEMGGKPRRKNPQEGLYNELQKDKMAEAYSEIGMKGERRRGKGHDGLYQGLSTATKDTYDALHMQALPPR |

From patent US20190153061A1
